# Values of other authors, collected in paper PMC6716794.
# Legend:
# thrombin ABE II = thrombin ABE II (UniProt P00734)
# Thrombin (Homo sapiens) = Thrombin (Homo sapiens) (UniProt P00734)
# thrombin ABE I = thrombin ABE I (UniProt P00734); experiment: NMR
# Sequence of PAR3GEL (O00254 39-374): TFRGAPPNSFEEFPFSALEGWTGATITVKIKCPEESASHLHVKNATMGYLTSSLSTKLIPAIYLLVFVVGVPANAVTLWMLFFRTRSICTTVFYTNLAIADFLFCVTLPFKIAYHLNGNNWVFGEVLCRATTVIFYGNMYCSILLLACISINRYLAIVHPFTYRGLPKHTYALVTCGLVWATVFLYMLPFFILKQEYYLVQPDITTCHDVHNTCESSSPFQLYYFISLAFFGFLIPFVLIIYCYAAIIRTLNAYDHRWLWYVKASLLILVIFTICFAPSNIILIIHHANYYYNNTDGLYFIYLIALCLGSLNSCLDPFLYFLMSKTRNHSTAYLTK
substance,measurement,setting,value
GpIbα 269-286 (from UniProt P07359),Kd,thrombin ABE II,5.9 nM
same,Kd,Thrombin (Homo sapiens),5.9 nM
PAR3GEL (from UniProt O00254),Kd,thrombin ABE I,47000 nM
